This note sets out measurements from patent publication US6831059 (ALLERGAN SALES, dated 2004).

A value given as a limit tells only on which side of the number the result lay.

Assay [1] addresses native BoNT/A H chain (UniProt P0DPI0).
Assay [2] concerns the target native TeTx H chain (UniProt P04958).
In assay [3] the target is T1, native TeTx H chain (UniProt P04958 458-1315).
T1 sequence: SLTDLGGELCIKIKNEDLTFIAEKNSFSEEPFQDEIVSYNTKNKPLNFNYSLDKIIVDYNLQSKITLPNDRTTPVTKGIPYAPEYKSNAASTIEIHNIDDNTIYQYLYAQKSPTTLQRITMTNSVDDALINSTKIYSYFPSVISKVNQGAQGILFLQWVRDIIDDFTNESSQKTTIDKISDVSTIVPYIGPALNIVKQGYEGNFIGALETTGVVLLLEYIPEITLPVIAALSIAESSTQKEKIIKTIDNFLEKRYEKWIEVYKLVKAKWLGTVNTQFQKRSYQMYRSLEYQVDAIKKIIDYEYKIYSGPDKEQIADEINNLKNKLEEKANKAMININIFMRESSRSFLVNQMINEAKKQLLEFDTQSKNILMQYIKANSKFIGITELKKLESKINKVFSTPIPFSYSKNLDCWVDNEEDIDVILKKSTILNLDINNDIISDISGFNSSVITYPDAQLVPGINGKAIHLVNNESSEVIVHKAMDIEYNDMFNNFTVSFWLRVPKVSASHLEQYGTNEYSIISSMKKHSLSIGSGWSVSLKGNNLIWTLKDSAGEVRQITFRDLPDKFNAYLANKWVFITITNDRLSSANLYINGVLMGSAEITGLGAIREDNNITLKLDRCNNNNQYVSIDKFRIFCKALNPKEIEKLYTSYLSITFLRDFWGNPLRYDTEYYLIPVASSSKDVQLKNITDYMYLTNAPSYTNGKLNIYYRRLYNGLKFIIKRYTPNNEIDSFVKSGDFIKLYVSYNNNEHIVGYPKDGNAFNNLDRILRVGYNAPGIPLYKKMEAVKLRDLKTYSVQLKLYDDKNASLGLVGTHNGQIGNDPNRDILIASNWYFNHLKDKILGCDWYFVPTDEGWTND
The assay is described as follows: reassociation by dialysis, non-reducing SDS-PAGE, silver staining.

Sequence of native BoNT/A H chain (P0DPI0 449-1296 limits assumed): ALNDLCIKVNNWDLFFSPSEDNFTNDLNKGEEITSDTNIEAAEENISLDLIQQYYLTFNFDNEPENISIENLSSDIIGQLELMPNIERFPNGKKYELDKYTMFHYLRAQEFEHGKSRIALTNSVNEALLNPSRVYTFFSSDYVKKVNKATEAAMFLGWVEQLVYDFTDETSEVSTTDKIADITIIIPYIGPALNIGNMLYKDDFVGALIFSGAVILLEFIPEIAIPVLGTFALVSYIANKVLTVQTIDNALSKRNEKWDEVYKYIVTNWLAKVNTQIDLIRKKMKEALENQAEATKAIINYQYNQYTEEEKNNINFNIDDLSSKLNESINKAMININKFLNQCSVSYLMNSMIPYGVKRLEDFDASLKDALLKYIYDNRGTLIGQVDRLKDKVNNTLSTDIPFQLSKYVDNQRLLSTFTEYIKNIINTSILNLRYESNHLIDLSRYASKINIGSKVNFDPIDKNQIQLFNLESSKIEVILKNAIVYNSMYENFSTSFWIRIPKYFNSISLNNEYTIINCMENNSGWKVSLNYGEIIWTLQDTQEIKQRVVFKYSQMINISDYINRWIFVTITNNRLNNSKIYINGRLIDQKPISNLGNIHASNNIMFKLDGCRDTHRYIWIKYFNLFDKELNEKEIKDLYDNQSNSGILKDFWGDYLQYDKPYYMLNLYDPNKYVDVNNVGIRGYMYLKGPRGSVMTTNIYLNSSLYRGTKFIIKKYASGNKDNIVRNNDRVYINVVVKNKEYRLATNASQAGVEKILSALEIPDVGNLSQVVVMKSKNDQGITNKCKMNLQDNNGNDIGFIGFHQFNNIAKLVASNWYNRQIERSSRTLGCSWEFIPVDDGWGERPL

Turning to “native BoNT/A L chain (from UniProt P0DPI0 2-448) (enzyme)”, the proportion of L chain reassociated with the H chain in assay [1] was greater than 90%.
For “recombinant wild-type TeTx L chain (from UniProt P04958 1-457) (enzyme)”, in assay [2], the relative amount of the dichain species is 55.1%.

B1: native TeTx L chain (enzyme)
chain: PITINNFRYSDPVNNDTIIMMEPPYCKGLDIYYKAFKITDRIWIVPERYEFGTKPEDFNPPSSLIEGASEYYDPNYLRTDSDKDRFLQTMVKLFNRIKNNVAGEALLDKIINAIPYLGNSYSLLDKFDTNSNSVSFNLLEQDPSGATTKSAMLTNLIIFGPGPVLNKNEVRGIVLRVDNKNYFPCRDGFGSIMQMAFCPEYVPTFDNVIENITSLTIGKSKYFQDPALLLMHELIHVLHGLYGMQVSSHEIIPSKQEIYMQHTYPISAEELFTFGGQDANLISIDIKNDLYEKTLNDYKAIANKLSQVTSCNDPNIDIDSYKQIYQQKYQFDKDSNGQYIVNEDKFQILYNSIMYGFTEIELGKKFNIKTRLSYFSMNHDPVKIPNLLDDTIYNDTEGFNIESKDLKSEYKGQNMRVNTNAFRNVDGSGLVSKLIGLCKKIIPPTNIRENLYNRTA
B1: the binding result in assay [3] was “binds”.
